This is an account of results in patent publication US20050026234A1.

Assay [1] addresses modified kemptide LRRASLP of C4kY2.1, phosphorylated by PKA at serine 475. Put plainly: cell-based or functional assay.
Assay [2] deals with PKC substrate sequence … of CKAR, phosphorylated by PKC at the phosphoacceptor threonine. Put plainly: cell-based or functional assay.

With “14-3-3τ (1-232), the phosphoaminoacid binding domain of the chimeric PKA reporter protein C4kY2.1”, in assay [1], the FRET efficiency of phosphorylated C4kY2.1, calculated after trypsin treatment (nonphosphorylated: 30%) is 20%; the change in the emission ratio 535 nm/480 nm in cells pretreated with 10 µM H-89, then 1 mM dbcAMP was determined as 46%; the emission ratio of 526 nm and 476 nm of the purified PKA-phosphorylated chimera before dephosphorylation by PP1 (1.14 after) was 1.39; the increase in the 535 nm/480 nm ratio in COS-7 cells treated with FsK and with dbcAMP amounted to 5%. Further, in assay [1], the ratio of the emission at 526 nm and 476 nm of purified C4kY2.1 after phosphorylation by PKA catalytic subunit (1.09 before) is 1.42.

For “FHA2 phosphothreonine binding domain from the yeast checkpoint protein rad53p, as the binding domain of CKAR (from UniProt P22216 601-681)”, the absolute amount of FRET of purified CKAR after phosphorylation by PKC βII (38% before), estimated from emission spectra in assay [2] is 34%.
